# B1: library; numbered along this chain (parent)
# chain: MRKPRAAVGSGHRKQAASQEGRQKHAKNNSQAKPSACDGLARQPEEVVLQASVSSYHLFRDVAEVTAFRGSLLSWYDQEKRDLPWRRRAEDEMDLDRRAYAVWVSEVMLQQTQVATVINYYTGWMQKWPTLQDLASASLEEVNQLWAGLGYYSRGRRLQEGARKVVEELGGHMPRTAETLQQLLPGVGRYTAGAIASIAFGQATGVVDGNVARVLCRVRAIGADPSSTLVSQQLWGLAQQLVDPARPGDFNQAAMELGATVCTPQRPLCSQCPVESLCRARQRVEQEQLLASGSLSGSPDVEECAPNTGQCHLCLPPSEPWDQTLGVVNFPRKASRKPPREESSATCVLEQPGALGAQILLVQRPNSGLLAGLWEFPSVTWEPSEQLQRKALLQELQRWAGPLPATHLRHLGEVVHTFSHIKLTYQVYGLALEGQTPVTTVPPGARWLTQEEFHTAAVSTAMKKVFRVYQGQQPGTCMGSKRSQVSSPCSRKKPRMGQQVLDNFFRSHISTDAHSLNSAAQ
# Variants of: B1
# Assay: 8OG:A repair function score (normalized; synonymous = 0, nonsense = -1) (normalized log-likelihood score); higher = more repair activity (WT-like)
# Details: with 8OG:A DNA repair reporter (GFP) in HEK-293 MUTYH KO cells
# Summary of the method: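 Per-tile Rosace fitness scores were converted to a normalized repair function score anchored on synonymous and nonsense distributions. That scale puts synonymous medians at 0 and nonsense medians at -1. Variants with starting counts under 300 counts per million were discarded. Input came from sorting viable mCherry+ MUTYH knockout HEK-293 cells, carrying lentiviral MUTYH cDNA NNN codon-scan libraries in 10 pg/ml doxycycline and an 8OG:A GFP repair reporter, into GFP+ and GFP− bins at 72 h, three replicates per tile, followed by tile amplicon sequencing.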
# 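Note: cells sorted at 72 h after reporter transfection.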
row,Variant,8OG:A repair function score
1,MRKPRAAVGSGHRKQAASQEGRQKHAKNNSQAKPSACDGLARQPEEVVLQASVSSYHLFRDVAEVTAFRGSLLSWYDQEKRDLPWRRRAEDEMDLDRRAYAVWVSEVMLQQTQVATVINYYTGWMQKWPTLQDRASASLEEVNQLWAGLGYYSRGRRLQEGARKVVEELGGHMPRTAETLQQLLPGVGRYTAGAIASIAFGQATGVVDGNVARVLCRVRAIGADPSSTLVSQQLWGLAQQLVDPARPGDFNQAAMELGATVCTPQRPLCSQCPVESLCRARQRVEQEQLLASGSLSGSPDVEECAPNTGQCHLCLPPSEPWDQTLGVVNFPRKASRKPPREESSATCVLEQPGALGAQILLVQRPNSGLLAGLWEFPSVTWEPSEQLQRKALLQELQRWAGPLPATHLRHLGEVVHTFSHIKLTYQVYGLALEGQTPVTTVPPGARWLTQEEFHTAAVSTAMKKVFRVYQGQQPGTCMGSKRSQVSSPCSRKKPRMGQQVLDNFFRSHISTDAHSLNSAAQ [L134R],-1.01
2,MRKPRAAVGSGHRKQAASQEGRQKHAKNNSQAKPSACDGLARQPEEVVLQASVSSYHLFRDVAEVTAFRGSLLSWYDQEKRDLPWRRRAEDEMDLDRRAYAVWVSEVMLQQTQVATVINYYTGWMQKWPTLQDLASASLEEVNQLWAGLGYYSRGRRLQEGARKVVEELGGHMPRTAETLQQLLPFVGRYTAGAIASIAFGQATGVVDGNVARVLCRVRAIGADPSSTLVSQQLWGLAQQLVDPARPGDFNQAAMELGATVCTPQRPLCSQCPVESLCRARQRVEQEQLLASGSLSGSPDVEECAPNTGQCHLCLPPSEPWDQTLGVVNFPRKASRKPPREESSATCVLEQPGALGAQILLVQRPNSGLLAGLWEFPSVTWEPSEQLQRKALLQELQRWAGPLPATHLRHLGEVVHTFSHIKLTYQVYGLALEGQTPVTTVPPGARWLTQEEFHTAAVSTAMKKVFRVYQGQQPGTCMGSKRSQVSSPCSRKKPRMGQQVLDNFFRSHISTDAHSLNSAAQ [G186F],-1.04
3,MRKPRAAVGSGHRKQAASQEGRQKHAKNNSQAKPSACDGLARQPEEVVLQASVSSYHLFRDVAEVTAFRGSLLSWYDQEKRDLPWRRRAEDEMDLDRRAYAVWVSEVMLQQTQVATVINYYTGWMQKWPTLQDLASASLEEVNQLWAGLGYYSRGRRLQEGARKVVEELGGHMPRTAETLQQLLPGVGRYTAGAIASIAFGQATGVVDGNVARVLCRVRAIGADPSSTLVSQQLWGLAQQLVDPARPGDFNQAAMELGATVCTPQRPLCSQCPVESLCRASQRVEQEQLLASGSLSGSPDVEECAPNTGQCHLCLPPSEPWDQTLGVVNFPRKASRKPPREESSATCVLEQPGALGAQILLVQRPNSGLLAGLWEFPSVTWEPSEQLQRKALLQELQRWAGPLPATHLRHLGEVVHTFSHIKLTYQVYGLALEGQTPVTTVPPGARWLTQEEFHTAAVSTAMKKVFRVYQGQQPGTCMGSKRSQVSSPCSRKKPRMGQQVLDNFFRSHISTDAHSLNSAAQ [R281S],-0.126
4,MRKPRAAVGSGHRKQAASQEGRQKHAKNNSQAKPSACDGLARQPEEVVLQASVSSYHLFRDVAEVTAFRGSLLSWYDQEKRDLPWRRRAEDEMDLDRRAYAVWVSEVMLQQTQVATVINYYTGWMQKWPTLQDLASASLEEVNQLWAGLGYYSRGRRLQEGARKVVEELGGHMPRTAETLQQLLPGVGRYTAGAIASIAFGQATGVVDGNVARVLCRVRAIGADPSSTLVSQQLWGLAQQLVDPARPGDFNQAAMELGATVCTPQRPLCSQCPVESLCRARQRVEQEQLLASGSLSGSPDVEECAPNTGQCHLCLPPSEPWDQTLGVVNFPRKASRKPPREESSATCVLEQPGALGAQILLVQRPNSGLLAGLWEFPSVYWEPSEQLQRKALLQELQRWAGPLPATHLRHLGEVVHTFSHIKLTYQVYGLALEGQTPVTTVPPGARWLTQEEFHTAAVSTAMKKVFRVYQGQQPGTCMGSKRSQVSSPCSRKKPRMGQQVLDNFFRSHISTDAHSLNSAAQ [T380Y],0.0876
5,MRKPRAAVGSGHRKQAASQEGRQKHAKNNSQAKPSACDGLARQPEEVVLQASVSSYHLFRDVAEVTAFRGSLLSWYDQEKRDLPWRRRAEDEMDLDRRAYAVWVSEVMLQQTQVATVINYYTGWMQKWPTLQDLASASLEEVNQLWAGLGYYSRGRRLQEGARKVVEELGGHMPRTAETLQQLLPGVGRYTAGAIASIAFGQATGVVDGNVARVLCRVRAIGADPSSTLVSQQLWGLAQQLVDPARPGDFNQAAMELGATVCTPQRPLCSQCPVESLCRARQRVEQEQLLASGSLSGSPDVEECAPNTGQCHLCLPPSEPWDQTLGVVNFPRKASRKPPREESSATCVLEQPGALGAQILLVQRPNSGLLAGLWEFPSVTWEPSEFLQRKALLQELQRWAGPLPATHLRHLGEVVHTFSHIKLTYQVYGLALEGQTPVTTVPPGARWLTQEEFHTAAVSTAMKKVFRVYQGQQPGTCMGSKRSQVSSPCSRKKPRMGQQVLDNFFRSHISTDAHSLNSAAQ [Q386F],-0.144
6,MRKPRAAVGSGHRKQAASQEGRQKHAKNNSQAKPSACDGLARQPEEVVLQASVSSYHLFRDVAEVTAFRGSLLSWYDQEKRDLPWRRRAEDEMDLDRRAYAVWVSEVMLQQTQVATVINYYTGWMQKWPTLQDLASASLEEVNQLWAGLGYYSRGRRLQEGARKVVEELGGHMPRTAETLQQLLPGVGRYTAGAIASIAFGQATGVVDGNVARVLCRVRAIGADPSSTLVSQQLWGLAQQLVDPARPGDFNQAAMELGATVCTPQRPLCSQCPVESLCRARQRVEQEQLLASGSLSGSPDVEECAPNTGQCHLCLPPSEPWDQTLGVVNFPRKASRKPPREESSATCVLEQPGALGAQILLVQRPNSGLLAGLWEFPSVTWEPSEQLQRKLLLQELQRWAGPLPATHLRHLGEVVHTFSHIKLTYQVYGLALEGQTPVTTVPPGARWLTQEEFHTAAVSTAMKKVFRVYQGQQPGTCMGSKRSQVSSPCSRKKPRMGQQVLDNFFRSHISTDAHSLNSAAQ [A391L],-0.101

# Source: the supplement of paper PMC11908140
